According to US20180155411A1 (Stanford University, published 2018):
Numbering of substitutions follows the chain as printed.

How the values were obtained:
[1] = target: T1, VP4 of rotavirus strain Wa (G1P[8]) (human rotavirus, UniProt P11193 1-775); experiment: immunostaining, RV-infected MA104 cells
T1 construct: whole, on cells

[2] = target: T1, VP4 of rotavirus strain Wa (G1P[8]); experiment: cell-based or functional assay
[3] = target: T2, VP4 of rotavirus strain OSU (G5P[7]) (porcine rotavirus); experiment: immunostaining, RV-infected MA104 cells
T2 construct: whole, on cells; also called OSU G5[7]
T2 sequence (P11114 whole entry): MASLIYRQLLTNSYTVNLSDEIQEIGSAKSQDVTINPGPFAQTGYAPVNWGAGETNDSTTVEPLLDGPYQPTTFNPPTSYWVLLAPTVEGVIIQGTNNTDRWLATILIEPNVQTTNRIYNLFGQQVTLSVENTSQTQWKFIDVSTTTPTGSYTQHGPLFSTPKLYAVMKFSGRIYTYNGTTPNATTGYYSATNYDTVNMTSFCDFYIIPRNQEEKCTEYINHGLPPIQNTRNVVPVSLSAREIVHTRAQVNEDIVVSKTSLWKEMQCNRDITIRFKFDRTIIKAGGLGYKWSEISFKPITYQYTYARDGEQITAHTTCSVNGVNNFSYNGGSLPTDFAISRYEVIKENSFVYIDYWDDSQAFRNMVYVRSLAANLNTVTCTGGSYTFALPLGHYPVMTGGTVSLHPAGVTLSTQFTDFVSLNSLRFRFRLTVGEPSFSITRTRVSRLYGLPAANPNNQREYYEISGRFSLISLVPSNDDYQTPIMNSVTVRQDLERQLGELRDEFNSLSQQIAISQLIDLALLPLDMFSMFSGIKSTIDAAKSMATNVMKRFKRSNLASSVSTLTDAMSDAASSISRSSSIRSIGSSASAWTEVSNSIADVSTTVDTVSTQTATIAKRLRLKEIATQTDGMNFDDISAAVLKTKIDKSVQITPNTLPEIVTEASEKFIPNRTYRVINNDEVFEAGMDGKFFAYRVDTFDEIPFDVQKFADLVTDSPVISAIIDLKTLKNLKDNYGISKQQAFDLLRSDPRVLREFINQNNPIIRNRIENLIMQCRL

[4] = target: T3, VP4 of rotavirus strain DS1 (G2P[4]) (human rotavirus, UniProt Q14197); experiment: immunostaining, RV-infected MA104 cells
T3 construct: whole, on cells

[5] = target: T4, VP4 of rotavirus strain ST3 (G4P[6]) (human rotavirus); experiment: immunostaining, RV-infected MA104 cells
T4 construct: whole, on cells
T4 sequence (P11200 whole entry): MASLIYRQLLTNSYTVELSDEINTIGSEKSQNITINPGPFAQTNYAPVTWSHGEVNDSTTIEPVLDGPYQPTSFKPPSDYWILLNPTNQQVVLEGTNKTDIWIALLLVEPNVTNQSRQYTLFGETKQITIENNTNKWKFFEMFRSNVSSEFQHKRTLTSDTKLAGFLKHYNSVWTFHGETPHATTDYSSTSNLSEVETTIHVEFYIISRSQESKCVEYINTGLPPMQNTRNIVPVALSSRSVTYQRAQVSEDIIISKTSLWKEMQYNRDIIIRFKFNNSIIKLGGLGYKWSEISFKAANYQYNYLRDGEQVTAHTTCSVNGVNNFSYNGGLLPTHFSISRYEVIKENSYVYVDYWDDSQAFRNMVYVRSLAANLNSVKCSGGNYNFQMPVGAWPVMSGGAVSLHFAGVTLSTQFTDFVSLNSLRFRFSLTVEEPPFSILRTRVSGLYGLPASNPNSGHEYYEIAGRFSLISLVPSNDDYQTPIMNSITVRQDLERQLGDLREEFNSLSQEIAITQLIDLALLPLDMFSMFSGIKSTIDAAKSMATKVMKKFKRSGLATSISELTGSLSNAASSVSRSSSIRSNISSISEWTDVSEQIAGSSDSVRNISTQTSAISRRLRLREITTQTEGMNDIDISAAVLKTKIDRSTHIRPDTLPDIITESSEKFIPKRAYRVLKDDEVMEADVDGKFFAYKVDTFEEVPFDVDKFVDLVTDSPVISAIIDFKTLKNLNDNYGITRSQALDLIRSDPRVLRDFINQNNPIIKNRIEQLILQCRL

[6] = target: T5, VP4 of rotavirus strain NCDV (G6P[1]) (bovine rotavirus); experiment: immunostaining, RV-infected MA104 cells
T5 construct: whole, on cells
T5 sequence (P17465 whole entry): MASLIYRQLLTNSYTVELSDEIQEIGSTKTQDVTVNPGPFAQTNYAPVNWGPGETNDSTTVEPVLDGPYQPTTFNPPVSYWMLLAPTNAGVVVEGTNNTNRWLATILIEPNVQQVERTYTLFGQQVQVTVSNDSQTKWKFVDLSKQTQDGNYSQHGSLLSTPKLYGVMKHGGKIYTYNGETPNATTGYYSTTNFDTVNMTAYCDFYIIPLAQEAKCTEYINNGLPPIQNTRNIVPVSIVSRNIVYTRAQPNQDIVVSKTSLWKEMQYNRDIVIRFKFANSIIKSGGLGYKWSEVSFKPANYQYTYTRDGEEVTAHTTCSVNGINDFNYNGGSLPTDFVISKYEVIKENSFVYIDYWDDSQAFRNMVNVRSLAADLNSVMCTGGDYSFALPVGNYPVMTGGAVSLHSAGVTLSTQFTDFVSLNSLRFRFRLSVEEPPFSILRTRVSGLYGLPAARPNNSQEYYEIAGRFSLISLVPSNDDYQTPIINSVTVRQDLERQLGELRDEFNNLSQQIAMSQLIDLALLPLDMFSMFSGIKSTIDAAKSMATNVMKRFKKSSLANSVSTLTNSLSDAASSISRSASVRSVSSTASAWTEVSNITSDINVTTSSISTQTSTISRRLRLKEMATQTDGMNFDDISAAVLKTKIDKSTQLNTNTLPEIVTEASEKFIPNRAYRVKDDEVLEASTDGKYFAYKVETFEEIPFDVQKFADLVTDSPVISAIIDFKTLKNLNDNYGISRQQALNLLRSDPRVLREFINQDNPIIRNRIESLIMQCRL

[7] = target: VP4 of rotavirus strain 69M (G8P[10]) (human rotavirus); experiment: cell-based or functional assay
[8] = target: VP4 of rotavirus strain #321 (G10P[11]) (human rotavirus); experiment: cell-based or functional assay
[9] = target: T2, VP4 of rotavirus strain OSU (G5P[7]); experiment: cell-based or functional assay
[10] = target: T5, VP4 of rotavirus strain NCDV (G6P[1]); experiment: cell-based or functional assay
[11] = target: T6, CDC-9 triple layered particles (TLPs), G1P[8] (human rotavirus); experiment: ELISA, CDC-9 TLPs
[12] = target: T7, VP7 of rotavirus strain Wa (G1P[8]) (human rotavirus, UniProt P03532 51-326); experiment: immunostaining, RV-infected MA104 cells
T7 construct: whole, on cells
T7 sequence (P03532 51-326 limits assumed): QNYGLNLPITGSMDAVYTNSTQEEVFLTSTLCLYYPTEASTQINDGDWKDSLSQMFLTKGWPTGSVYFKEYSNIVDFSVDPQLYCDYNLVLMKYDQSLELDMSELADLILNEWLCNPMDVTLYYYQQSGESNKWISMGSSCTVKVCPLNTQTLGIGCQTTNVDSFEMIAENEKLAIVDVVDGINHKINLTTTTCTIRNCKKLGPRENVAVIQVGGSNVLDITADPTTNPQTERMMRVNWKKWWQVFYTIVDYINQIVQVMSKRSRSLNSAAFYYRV

[13] = target: T7, VP7 of rotavirus strain Wa (G1P[8]); experiment: cell-based or functional assay
[14] = target: T6, CDC-9 triple layered particles (TLPs), …; experiment: cell-based or functional assay
[15] = target: T3, VP4 of rotavirus strain DS1 (G2P[4]); experiment: cell-based or functional assay
[16] = target: VP7 of rotavirus strain 69M (G8P[10]) (human rotavirus); experiment: cell-based or functional assay
[17] = target: VP7 of rotavirus strain #321 (G10P[11]) (human rotavirus); experiment: cell-based or functional assay
[18] = target: T8, VP7 of rotavirus strain DS1 (G2P[4]) (human rotavirus); experiment: immunostaining, RV-infected MA104 cells
T8 construct: whole, on cells
T8 sequence (P11850 51-326): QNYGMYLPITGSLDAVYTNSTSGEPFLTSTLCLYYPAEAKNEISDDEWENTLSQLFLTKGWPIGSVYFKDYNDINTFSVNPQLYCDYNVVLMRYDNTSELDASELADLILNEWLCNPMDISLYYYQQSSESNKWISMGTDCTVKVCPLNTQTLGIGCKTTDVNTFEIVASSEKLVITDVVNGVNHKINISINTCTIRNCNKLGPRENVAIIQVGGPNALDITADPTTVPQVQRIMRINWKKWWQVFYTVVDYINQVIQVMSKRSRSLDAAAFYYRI

[19] = target: T9, VP7 of rotavirus strain ST3 (G4P[6]) (human rotavirus); experiment: immunostaining, RV-infected MA104 cells
T9 construct: whole, on cells
T9 sequence (P10501 51-326): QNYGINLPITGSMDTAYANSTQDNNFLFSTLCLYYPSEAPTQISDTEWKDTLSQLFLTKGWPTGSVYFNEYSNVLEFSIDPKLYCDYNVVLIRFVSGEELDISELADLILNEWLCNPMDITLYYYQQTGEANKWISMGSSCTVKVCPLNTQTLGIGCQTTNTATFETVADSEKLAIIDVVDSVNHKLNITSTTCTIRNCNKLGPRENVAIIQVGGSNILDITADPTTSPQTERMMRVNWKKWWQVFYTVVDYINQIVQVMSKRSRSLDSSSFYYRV

[20] = target: T10, VP7 of rotavirus strain RRV (G3P[3]) (simian rotavirus, UniProt P12476 51-326); experiment: immunostaining, RV-infected MA104 cells
T10 construct: whole, on cells
T10 sequence (P12476 51-326): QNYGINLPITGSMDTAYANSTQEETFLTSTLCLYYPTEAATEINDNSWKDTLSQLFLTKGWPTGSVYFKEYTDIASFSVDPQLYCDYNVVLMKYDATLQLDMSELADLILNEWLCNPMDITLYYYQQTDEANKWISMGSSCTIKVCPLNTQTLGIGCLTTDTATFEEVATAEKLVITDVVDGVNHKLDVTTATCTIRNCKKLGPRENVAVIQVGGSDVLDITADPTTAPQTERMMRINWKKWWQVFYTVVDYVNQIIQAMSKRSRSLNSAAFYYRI

[21] = target: T11, VP7 of rotavirus strain OSU (G5P[7]) (porcine rotavirus); experiment: immunostaining, RV-infected MA104 cells
T11 construct: whole, on cells; also called OSU G5[7]
T11 sequence (P08406 51-326): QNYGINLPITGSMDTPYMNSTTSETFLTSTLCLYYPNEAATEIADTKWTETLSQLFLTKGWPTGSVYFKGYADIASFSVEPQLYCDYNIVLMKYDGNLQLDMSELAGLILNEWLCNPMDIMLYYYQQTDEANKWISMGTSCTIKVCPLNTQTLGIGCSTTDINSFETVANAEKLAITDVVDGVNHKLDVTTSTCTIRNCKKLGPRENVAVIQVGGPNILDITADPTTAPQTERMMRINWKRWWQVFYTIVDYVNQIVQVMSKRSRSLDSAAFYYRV

[22] = target: T8, VP7 of rotavirus strain DS1 (G2P[4]); experiment: cell-based or functional assay
[23] = target: T10, VP7 of rotavirus strain RRV (G3P[3]); experiment: cell-based or functional assay
[24] = target: T11, VP7 of rotavirus strain OSU (G5P[7]); experiment: cell-based or functional assay

T1 sequence (P11193 whole entry): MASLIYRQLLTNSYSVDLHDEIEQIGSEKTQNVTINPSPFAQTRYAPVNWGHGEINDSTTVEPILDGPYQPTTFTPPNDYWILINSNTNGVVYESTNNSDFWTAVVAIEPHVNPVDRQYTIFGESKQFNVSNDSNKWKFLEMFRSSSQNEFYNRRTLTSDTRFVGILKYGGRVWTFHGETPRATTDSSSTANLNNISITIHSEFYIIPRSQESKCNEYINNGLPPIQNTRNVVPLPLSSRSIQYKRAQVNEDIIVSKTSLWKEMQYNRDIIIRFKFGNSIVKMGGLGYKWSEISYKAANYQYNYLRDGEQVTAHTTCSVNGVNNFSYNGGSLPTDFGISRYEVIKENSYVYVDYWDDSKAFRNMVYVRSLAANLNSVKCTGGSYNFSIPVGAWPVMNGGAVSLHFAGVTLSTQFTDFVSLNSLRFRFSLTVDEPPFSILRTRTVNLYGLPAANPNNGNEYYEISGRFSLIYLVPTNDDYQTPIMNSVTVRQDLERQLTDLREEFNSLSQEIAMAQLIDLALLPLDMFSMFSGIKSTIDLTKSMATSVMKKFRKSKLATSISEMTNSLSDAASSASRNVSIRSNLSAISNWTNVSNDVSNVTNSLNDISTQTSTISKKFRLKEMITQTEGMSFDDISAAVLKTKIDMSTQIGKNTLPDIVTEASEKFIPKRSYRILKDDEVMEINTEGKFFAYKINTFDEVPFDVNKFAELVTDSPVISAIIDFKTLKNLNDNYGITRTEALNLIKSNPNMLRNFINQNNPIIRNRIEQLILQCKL

B1: mAb #33 (antibody, V domains shown)
VH: DVQLVESGGGLVQPGGPSRLSCSASRFTFSNYAMYWVRQAPGKGLEYVSSISSDGGSTYYAESVKGRFTISRDNSKNTLYLQMRSLRAEDAAVYYCVTDVLRLPYSTGWSPGDFIYWGQGTLVTVSS
VL: DIQMTQSPSILYASVGDRVTITCRASQSVSSWLAWYQQKPGKVPKLLIYQASTLENGVPSRFSGSGSGTEFILTISSLQPDDFATYYCQHYNVLWTFGQGTKVEI
notes: also called mAb ID: 33; Mab No. 33
Endpoint immunostaining concentration [1]: 50 ng/mL | minimum neutralizing concentration [2]: 2.4 ng/mL

B2: mAb #49 (antibody, V domains shown)
VH: B1 VH with P17S, S18V
VL: DIQMTQSPSILYASVGDRVTITCRASQSVSSWLAWYQQKPGKVPKLLIYQASTLENGVPSRFSGSGSGTEFILTISSLQPDDFATYYCQHYNVLWTFGQGTKVEIK
notes: also called mAb ID: 49; Mab No. 49
Endpoint immunostaining concentration [1]: 5 ng/mL | Endpoint immunostaining concentration [3]: 5.6 ng/mL | Endpoint immunostaining concentration [4]: 0.5 ng/mL | Endpoint immunostaining concentration [5]: 5 ng/mL | Endpoint immunostaining concentration [6]: 5.6 ng/mL | in vitro neutralization [7]: > 625 ng/mL | in vitro neutralization [8]: > 625 ng/mL | minimum neutralizing concentration [2]: 39.1 ng/mL | minimum neutralizing concentration [9]: 156 ng/mL | minimum neutralizing concentration [10]: 39.1 ng/mL | Minimum concentration for TLP binding [11]: 5 ng/mL

B3: mAb #30 (antibody, V domains shown)
VH: QVQLVQSGAEVKKPGASVTVSCKASGYAFTSFYLHWVRQAPGQGLEWMGIINPSDGRTRYAQKFQGRVTMTSDTSTNTVYVELSSLRSEDTAIYYCARGAIGNYNAREALDVWGRGTTVTVSS
VL: EIVMTQSPATLSVSPGESATLSCRASQSINSNLAWYQQKPGQAPRLLIFSASSRATGIPARFSGSGSGTEFTLTISSLQSDDFAVYYCQQYNIWPPEHTFGQGTRLQIK
notes: also called mAb ID: 30; Mab No. 30
Endpoint immunostaining concentration [1]: 5 ng/mL | minimum neutralizing concentration [2]: 0.6 ng/mL

B4: mAb #41 (antibody, V domains shown)
VH: EVQLVESGGGPVQPGGSLKLSCAASGFTFSNYEMYWVRQAPGKGLEWVSYISTSPAITYYADSVRGRFTISRDNAKSSLYLHMNSLRAEDTAVYYCATISHQQFSSGWNAWFDPWGQGTLVTVSS
VL: NFMLTQPHSVSESPGKTVTISCTGSSGSIASNYVQWYRQRPGSAPTTVIYENYQRPSGVPARFSGSIDRSSNSASLTISGLQTDDEADYYCQSYDNNNLWVFGGGTKLTVL
notes: also called mAb ID: 41; Mab No. 41
Endpoint immunostaining concentration [1]: 0.5 ng/mL | minimum neutralizing concentration [2]: 0.6 ng/mL

B5: mAb #2 (antibody, V domains shown)
VH: EVQLVESGGGLVKPGGSLRLSCKASGLIVSDAWMSWVRQSPGKGLEWVGRIKSEINGGTIDYAAPVKGRFTILRDDSKNTLYLQINSLKTEDTAVYYCTTRLLFSPWGQGTLVTVSS
VL: QPVLTQPPSSSASPGESARLTCTLPSDINVAYYNIYWYQQKPGSPPRYLLYYYSDSDQGQGSGVPSRFSGSKDASANTGILFISGLQSEDEADYYCMIWTSNASMFGGGTKLTVL
notes: also called mAb ID: 2; Mab No. 2
Endpoint immunostaining concentration [1]: 5 ng/mL

B6: mAb #27 (antibody, V domains shown)
VH: QVQLQESGPGLVKPLETLSLTCAVSGVSINSYYWSWIRQPPGKGLEWIGNVFYSGSTKYNPSLESRVAMTVDSSRNQVSLRLNSVTAADTAVYYCAREGVGYGYNNYGGNWFDPWGQGTLVTVSS
VL: EVVLTQSPGTLSLSPGERVTLSCRASQSVTSSNLAWYQQKPGQTPRLLISGASSRATGIPDRFSGSGSGTDFTLTISRLEPEDFAVYYCQQYANSPVTFGGGTKLEIK
notes: also called mAb ID: 27; Mab No. 27
Endpoint immunostaining concentration [12]: 0.5 ng/mL | minimum neutralizing concentration [13]: 0.3 ng/mL

B7: mAb #47 (antibody, V domains shown)
VH: QVQLQESGPGLVKPSETLSLTCSVSGGSISVYYWNWIRQSPGKGLEWIASMYYTGITNYNPSLKSRVTMSVDMSKNQFSLKLSSVTAADTAVYYCARTMGIDQNNRGWPPAGYYFGMDVWGQGTTVTVSS
VL: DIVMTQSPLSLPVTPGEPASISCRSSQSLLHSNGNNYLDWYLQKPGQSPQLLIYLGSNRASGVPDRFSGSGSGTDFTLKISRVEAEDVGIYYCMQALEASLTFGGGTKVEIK
notes: also called mAb ID: 47; Mab No. 47
Endpoint immunostaining concentration [1]: 0.5 ng/mL | Endpoint immunostaining concentration [4]: 0.5 ng/mL | in vitro neutralization [7]: > 625 ng/mL | in vitro neutralization [8]: > 625 ng/mL | minimum neutralizing concentration [14]: 4.9 ng/mL | minimum neutralizing concentration [15]: 4.9 ng/mL | Minimum concentration for TLP binding [11]: 0.5 ng/mL

B8: mAb #46 (antibody, V domains shown)
VH: QVQLQESGPGLVKPSETLSLTCTVSGGSINSYYWSWIRQSPGKGLEWIGYVFYSGITKYNPSLQSRVTISLDMGKNQFSLKLTSVNAADAAVYYCARNFPSYTPDWFFDLWGRGTLVTVSS
VL: EIVLTQSPGTLSLSPGERATLSCRASQSVSSDNLAWYQQKPGQPPRLLIYGASHRATGIPDRFSGSGSGTDFTLTISRLEPEDFAVYHCQQYGSSPLTFGGGTKVEIK
notes: also called mAb ID: 46; Mab No. 46
Endpoint immunostaining concentration [12]: 0.5 ng/mL | in vitro neutralization [16]: > 625 ng/mL | in vitro neutralization [17]: > 625 ng/mL | minimum neutralizing concentration [13]: 2.4 ng/mL | Minimum concentration for TLP binding [11]: 0.5 ng/mL

B9: mAb #57 (antibody, V domains shown)
VH: QVQLVESGGGVVQSGRSLRLSCAASGFTFRSYAMHWVRQAPGKGLEWVADLSLDGSHKYADSVRGRFTISSDSSKNTVYLQMNSLRTEDTAIYYCARAAGIMVAGTFLTEFYFDYWGQGTLVTVSS
VL: QSVLTQPPSVSGAPGQRVTISCTGSSSNIGAGYDVHWYQQLPGTAPKLLIYGNIKRPSGVPDRFSGSKSGTSASLAITGLQTEDEADYYCQSYDSSLSAYYVFGTGTRVTVL
notes: also called mAb ID: 57; Mab No. 57
Endpoint immunostaining concentration [18]: 0.5 ng/mL | Endpoint immunostaining concentration [19]: 500 ng/mL | Endpoint immunostaining concentration [20]: 5 ng/mL | Endpoint immunostaining concentration [21]: 50 ng/mL | in vitro neutralization [16]: > 625 ng/mL | in vitro neutralization [17]: > 625 ng/mL | minimum neutralizing concentration [22]: 4.9 ng/mL | minimum neutralizing concentration [23]: 1.2 ng/mL | minimum neutralizing concentration [24]: 19.5 ng/mL | Minimum concentration for TLP binding [11]: 0.5 ng/mL
